B1: library; numbered along this chain (parent)
chain: MRKPRAAVGSGHRKQAASQEGRQKHAKNNSQAKPSACDGLARQPEEVVLQASVSSYHLFRDVAEVTAFRGSLLSWYDQEKRDLPWRRRAEDEMDLDRRAYAVWVSEVMLQQTQVATVINYYTGWMQKWPTLQDLASASLEEVNQLWAGLGYYSRGRRLQEGARKVVEELGGHMPRTAETLQQLLPGVGRYTAGAIASIAFGQATGVVDGNVARVLCRVRAIGADPSSTLVSQQLWGLAQQLVDPARPGDFNQAAMELGATVCTPQRPLCSQCPVESLCRARQRVEQEQLLASGSLSGSPDVEECAPNTGQCHLCLPPSEPWDQTLGVVNFPRKASRKPPREESSATCVLEQPGALGAQILLVQRPNSGLLAGLWEFPSVTWEPSEQLQRKALLQELQRWAGPLPATHLRHLGEVVHTFSHIKLTYQVYGLALEGQTPVTTVPPGARWLTQEEFHTAAVSTAMKKVFRVYQGQQPGTCMGSKRSQVSSPCSRKKPRMGQQVLDNFFRSHISTDAHSLNSAAQ

Variants of: B1
Test: 8OG:A repair function score (normalized; synonymous = 0, nonsense = -1) (normalized log-likelihood score); higher = more repair activity (WT-like)
Settings: with 8OG:A DNA repair reporter (GFP) in HEK-293 MUTYH KO cells
Method in brief: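 Lentiviral MUTYH cDNA NNN codon-scan libraries in HEK-293 MUTYH knockout cells (10 pg/ml doxycycline) were co-transfected with an 8OG:A GFP repair reporter plus mCherry. At 72 h, viable mCherry+ cells were sorted into GFP+ (repair) and GFP− bins, three replicates per tile, then tile amplicons were sequenced. Per-tile Rosace fitness scores became a normalized repair function score anchored on synonymous and nonsense distributions. Synonymous medians were set to 0 and nonsense to -1; variants under 300 counts per million at the start were removed.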

8OG:A repair function score of substitutions, site by site:
L289: R -0.0177 | A 0.00592 | I 0.00652 | M -0.0277 | N -0.057 | W -0.0271 | Q 0.015 | V -0.0422 | K -0.0314 | T 0.0028 | D -0.0394 | S -0.0139 | F -0.00169 | G -0.00218 | H 0.0106 | P -0.0119 | E -0.00394 | C -0.0659
V274: Q -0.544 | L -0.0284 | I -0.0406 | H -0.563 | A -0.219 | M -0.0354 | K -1.03 | D -1.01 | G -0.676 | W -0.16 | P -1.23 | F -0.303 | E -0.423 | S -0.589 | C -0.176 | R -0.994 | Y -0.549 | T -0.241 | N -0.714
S276: L -0.0125 | M -0.0454 | D 0.00885 | W -0.0968 | P -0.0133 | A 0.0102 | V -0.0409 | K 0.0174 | Y 0.0309 | H 0.0172 | R -0.0136 | N -0.00423 | Q 0.0194 | E -0.0386 | T 0.0017 | G -0.00134 | I -0.0404 | C -0.133 | F -0.0215
E287: Q -0.114 | K -0.0128 | Y -0.00218 | T -0.00299 | H -0.047 | A -0.017 | C -0.037 | W -0.0668 | D -0.0111 | M 0.0384 | V -0.04 | S 0.005 | P -0.121 | G -0.0256 | I -0.038 | F -0.0154 | N -0.0363 | L -0.0229 | R -0.0601
P273: W -0.748 | L -0.946 | T -0.453 | Q -0.798 | H -0.569 | K -0.708 | C -0.28 | M -1.05 | S -0.426 | R -0.526 | V -0.419 | A -0.171 | Y -0.661 | E -0.952 | N -0.903 | G -0.625 | D -1.05 | I -0.662 | F -0.844
R283: E -0.246 | K -0.0478 | W -0.115 | M -0.0516 | Q -0.0283 | P -0.625 | V -0.0935 | G -0.364 | S -0.203 | I -0.0881 | A -0.145 | D -0.662 | T -0.308 | H -0.102 | C -0.167 | L -0.0781 | F -0.16 | N -0.173 | Y -0.0964
R279: Q -0.155 | P -1.12 | A -0.278 | K -0.0521 | V -0.344 | Y -0.151 | H -0.0508 | E -0.233 | F -0.277 | G -0.388 | N -0.123 | M -0.178 | W -0.139 | S -0.377 | D -0.718 | T -0.339 | I -0.172 | L -0.146 | C -0.251
E285: Q -0.00364 | A 0.00663 | W 0.0108 | C -0.00692 | F 0.000814 | Y -0.0542 | I -0.0117 | M -9.17e-05 | V 0.00347 | H -0.0454 | T -0.0287 | K -0.0741 | S 0.0138 | D -0.0239 | R 0.00385 | L -0.000221 | P -0.129 | N -0.0168 | G -0.0139
A280: C -0.398 | D -0.649 | E -0.713 | H -0.731 | R -0.814 | K -0.812 | W -0.57 | Q -0.761 | Y -0.51 | S -0.172 | V -0.0812 | N -0.632 | I -0.189 | G -0.137 | L -0.262 | M -0.582
